The supplement of paper PMC10266784

B1: library; numbered along this chain (parent)
chain: MAAAAAAAAEQQSSNGPVKKSMREKAVERRSVNKEHNSNFKAGYIPIDEDRLHKTGLRGRKGNLAICVIILLFILAVINLIITLVIWAVIRIGPNGCDSMEFHESGLLRFKQVSDMGVIHPLYKSTVGGRRNENLVITGNNQPIVFQQGTTKLSVENNKTSITSDIGMQFFDPRTQNILFSTDYETHEFHLPSGVKSLNVQKASTERITSNATSDLNIKVDGRAIVRGNEGVFIMGKTIEFHMGGNMELKAENSIILNGSVMVSTTRLPSSSSGDQLGSGDWVRYKLCMCADGTLFKVQVTSQNMGCQISDNPCGNTH

Variants of: B1
Assay: SGCB cell-surface expression functional score (HA stain, bin4 vs bin1, normalised to synonymous) (log10 ratio); higher = more cell-surface SGCB (functional)
Method in brief: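 HEK293 cells stably expressing alpha-, gamma- and delta-sarcoglycan received codon-saturation libraries of HA-tagged, YFP-fused human beta-sarcoglycan by lentiviral transduction at MOI <0.1, performed in duplicate. Cells positive for YFP were sorted after 72 hours and cultured for 5–7 days, then stained on ice with Alexa Fluor 647 anti-HA and fixed. Fixed cells were sorted into four 5% intensity bins and amplicon-sequenced, and the log ratio of highest-bin to lowest-bin variant frequency, as a median over codons and transductions, gives the functional score. Per section, synonymous variants were scaled to mean 0, SD 0.5.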

Variant | SGCB cell-surface expression functional score (log10)
S272K | 0.11
I66G | 0
E156K | -0.6
G167R | -1.14
P143Q | -0.7
N134F | -0.37
I218K | -1.78
M168G | -1.9
F233D | -0.146
T266F | 0.7
K61E | -0.08
V136F | 0.49
G16L | -0.08
R109C | -0.5
R174T | 0.3
F102L | -0.5
F171M | 1.04
M289I | 0.1
D221A | 0.18
G106V | -1.47
I144V | 0.47
R284G | -0.11
T163D | -1.08
S271Y | -0.26

Variant | SGCB cell-surface expression functional score (log10)
D165S | -0.01
T265F | 0.68
L80H | -0.14
T317K | 0.5
T150F | -0.59
V232T | 0
I255P | -0.82
Y285S | -0.49
L287P | 0.16
F296I | 0.21
P46N | 0.18
N157P | 0.01
E252S | 0.51
F170R | -1.14
Q148P | -1.36
N63E | -0.28
G228F | -0.64
S105F | -0.75
I90W | -0.2
S260Y | -0.87
A224R | -1.54
L277A | -0.39
S254A | 0.25
M1E | -0.03

Variant | SGCB cell-surface expression functional score (log10)
E206I | -0.47
F241R | -1.19
S260R | 0.87
P94G | -0.25
N229Q | 0.93
V232R | -1.12
V263C | 1
A6E | -0.14
R23K | -0.04
F189V | -1.22
L52E | 0.55
C307E | -0.34
T266N | 0.54
G16N | 0.14
M22S | 0.52
A203H | -1.81
N217W | -1.28
K152F | 0.02
D98G | -0.2
L287K | -0.59
G117R | -0.86
S21A | 0.2
V220D | -0.38
K152S | -0.23

Variant | SGCB cell-surface expression functional score (log10)
G149L | -0.34
G306E | -0.55
P121W | -0.71
K41F | -0.47
A3I | -0.02
M168I | -0.24
N63D | -0.06
F233P | -1.53
L179A | 0.06
S164I | -1.26
A4E | -0.43
H190A | -0.38
H187P | -1.29
M100G | -1.04
D183F | -1.63
I162D | -1.31
D183M | -0.83
V200E | -2.93
L75I | 0.09
N141G | -0.3
G96S | -1.81
K41R | -0.25
N157E | -0.18
D48W | 0.22

Variant | SGCB cell-surface expression functional score (log10)
V300M | -1.6
C288F | -0.71
V145N | -0.26
N246M | 0.42
K111A | -1.04
A251I | -0.87
Y285K | -0.76
R51K | 0.63
D48E | -0.17
T182V | -1.47
I225S | 0.63
H36K | 0.53
D311M | 0.69
T294A | 0.08
S13A | 0.2
N79V | 0
N158E | -0.02
G62C | 0.33
G278R | 0.05
M116G | -1.48
V226H | -1.36
S272C | -0.03
N246Q | 0.45
T160P | -1.28

Variant | SGCB cell-surface expression functional score (log10)
F110R | -1.05
H103F | -0.14
Y184D | -0.8
I81A | 0.13
A8K | 0.32
E240H | 0.77
V145S | -0.31
T265Q | 0.21
G96V | -1.95
E185M | -1.36
T150S | -0.15
N157W | 0.34
S310L | 0.07
S14W | -0.06
K61H | -0.27
D221Y | 0.42
S38V | -0.31
A9M | 0.67
I178H | -0.39
P269V | 0
E49A | 0.29
E248R | 0.67
C97L | 0.37
P269D | -0.09

Variant | SGCB cell-surface expression functional score (log10)
V113D | -0.21
L108F | -1.87
D215L | -1.51
Q112C | -0.81
I82T | -0.05
Q276A | -0.49
F146C | -0.47
N199Y | -0.67
R29M | -0.81
Q142Y | -0.3
E35C | -0.07
S273P | -0.33
A76I | 0.22
E10K | 0.18
V32H | 0.35
L57S | 0.11
S214F | -1.55
S125K | -0.93
L71K | 0.36
I45N | 0.15
A7S | -0.09
M262R | 0.7
D281E | 0.11
A7F | 0.02

Variant | SGCB cell-surface expression functional score (log10)
I69M | 0.22
T301L | -0.56
V85Q | 0.08
F189L | -0.46
V113E | -0.5
G274Q | -0.28
C288K | -1.15
Q112N | -1.32
A26I | 0.06
W87H | -0.27
V145C | -0.73
Q147P | -0.68
K20G | -0.09
R227V | 0.81
R131P | -0.13
Q112Y | -0.7
T126I | 0.24
F170L | 0.11
M243D | -0.38
T151W | -1.19
V226W | -1.37
N132F | -0.11
D281Y | 0.16
S264K | 0.5

Variant | SGCB cell-surface expression functional score (log10)
A212C | -0.61
V18A | 0.26
A203M | 0.612
K250G | 0.55
T163E | -0.38
K19N | 0.14
R174V | -0.32
Y184K | -1.77
G315R | 0.03
G129M | -0.82
T151C | -0.22
N63R | 0.07
Y184G | -1.39
R207W | -0.06
G280Q | -0.26
F102I | -1.26
N134W | -0.71
A8C | 0.27
Q201P | -0.23
A3Y | 0.27
K159W | -0.05
K159P | -1.13
V18E | 0.13
T55F | 0.18

Variant | SGCB cell-surface expression functional score (log10)
R58P | 0.27
F180I | -1.72
Q303M | -0.16
G139R | -0.98
K159D | -1.02
I81R | -0.73
D281F | 0.45
E28F | 0.2
I45L | -0.03
V89F | -1.21
L216K | -0.59
K20Q | 0.49
E101C | -1.14
E206A | 1.04
I218V | 0.46
E35S | 0.03
G167S | -1.64
T205G | -1.7
S154I | 0
Q276Y | 0.02
R223P | 0.58
E252W | 0.117
N304C | -0.06
T126N | -0.36

Variant | SGCB cell-surface expression functional score (log10)
T175K | -0.54
E101F | -0.8
Y184V | -2.52
N37L | 0.05
I66C | 0.65
S214W | -1.07
S193I | 0.78
Q299C | -1.36
K20F | 0.1
G244A | 0.67
V136N | -0.01
P17V | -0.13
G16P | 0.37
T266R | 0.23
K219E | -0.03
Q276F | -0.23
L84T | 0.17
V68P | 0
A65N | 0.06
K25T | 0.27
H187W | 0.48
G231T | -0.29
G129L | -1.15
T83W | -0.91

Variant | SGCB cell-surface expression functional score (log10)
L295E | -0.95
L52H | 0.01
T182Q | -1.49
T138G | -0.34
V220I | 0.43
R130Q | 0.47
Q276H | -0.07
D221I | 0.45
L122P | -1.07
K54G | 0.21
T151D | -1.17
F102H | 0.01
N312S | 0.08
K111H | -0.03
K196E | -0.37
R30K | 0.16
G167D | -1.19
K297D | 0.03
L198V | -0.55
G236I | -1.64
M262I | -0.11
H53M | 0.08
T205P | -0.48
K250R | 0.59

Variant | SGCB cell-surface expression functional score (log10)
C288R | -0.93
L75E | -0.08
G56F | 0.28
E10F | -0.46
M262E | 0.65
I255C | 0.39
D292I | 0.06
S105E | -0.29
I82Q | 0.28
N79H | -0.33
N158F | -0.06
Q11A | -0.04
A26Y | -0.11
Y44W | 0.07
S310P | -0.54
S210F | -0.9
H120D | -0.59
S31V | 0.19
R174D | -0.81
V77R | -0.37
R51G | -0.17
E10R | 0.14
H187S | -0.12
Q12G | 0.12

Variant | SGCB cell-surface expression functional score (log10)
G167V | -0.99
E104C | 0.35
P173A | -0.38
E188G | -0.55
K61A | -0.12
F110V | -0.47
D48Q | -0.36
S279K | -0.05
N134M | -0.26
A251P | 0.04
N304G | 0.09
K219V | -0.18
P143S | -0.44
S21D | 0.33
N177K | -0.45
N37K | -0.39
R130P | 0.33
K25D | 0.19
F233T | 0.7
Q176S | -0.24
I256E | 0.36
T151E | -1.31
